Assay results: patent EP1053001B1
Non-standard residues stand in square brackets, D forms with d. No end group written: not given here. *: point of attachment. Aib = CC(C)(N)C(=O)O; For = O=C*

Target: T1, calcitonin receptors (human T47D / MCF7 breast carcinoma cells) (human), P30988
T1 chain: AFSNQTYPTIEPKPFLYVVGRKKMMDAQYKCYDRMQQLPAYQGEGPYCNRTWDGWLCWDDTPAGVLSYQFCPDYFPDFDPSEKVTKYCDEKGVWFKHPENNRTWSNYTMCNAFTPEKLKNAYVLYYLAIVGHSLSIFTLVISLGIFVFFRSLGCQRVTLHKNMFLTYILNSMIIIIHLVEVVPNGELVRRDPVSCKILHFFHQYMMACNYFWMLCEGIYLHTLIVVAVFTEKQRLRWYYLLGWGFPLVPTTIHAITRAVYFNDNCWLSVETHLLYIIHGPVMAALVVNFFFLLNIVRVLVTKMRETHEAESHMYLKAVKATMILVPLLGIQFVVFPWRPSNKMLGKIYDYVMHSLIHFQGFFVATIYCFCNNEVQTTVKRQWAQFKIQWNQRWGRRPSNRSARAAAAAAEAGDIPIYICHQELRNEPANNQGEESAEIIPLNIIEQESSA
Assay: radioligand competition vs 125I-salmon calcitonin, human T47D cell membranes

IC50: 93 nM
B1: Compound 8 (peptide)
peptide: VL[Aib]K(For)LSQEL[Aib]K(For)LQTYPRTNTGSNTY-NH2
